Test results published in US20220315655A1 (NOVIMMUNE, published 2022).

T1: recombinant mouse CD47 soluble protein (mouse, UniProt Q61735 19-140, limits assumed)
T1 sequence (looked up): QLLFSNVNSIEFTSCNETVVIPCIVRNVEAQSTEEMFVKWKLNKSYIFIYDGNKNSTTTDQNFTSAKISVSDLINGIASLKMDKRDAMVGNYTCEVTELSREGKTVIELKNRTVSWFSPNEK


Assays:
[1] = target: T2, human PD-L1 on cells (hPD-L1-transfected CHO cells; IFNg-induced HT-1080 tumor cells) (human, UniProt Q9NZQ7 19-290); test: cell-based competition: hPD-1-moFc binding to IFNg-induced PD-L1+CD47+ HT-1080 cells, CellInsight imaging
T2 construct: whole, on cells; The CHO transfectants are negative for human CD47; HT-1080 cells also carry CD47; also called PD-L1+CD47+ HT-1080

[2] = target: T1, recombinant mouse CD47 soluble protein; test: statement in the xenograft example; assay not named
[3] = target: human CD47 on cells (Raji, Nalm-6, HT-1080 tumor cells; human red blood cells) (human, UniProt Q08722 19-323); test: cell-based or functional assay
[4] = target: T3, recombinant human PD-L1 soluble protein (human, UniProt Q9NZQ7 19-238, biotinylated); test: BLI (OctetRED96), biotinylated PD-L1 on streptavidin biosensors, bsAb in solution, 1:1 global fit, 30 C
T3 construct: Bought soluble protein; also called hPD-L1; B7-H1

[5] = target: T4, recombinant mouse PD-L1 soluble protein (mouse, UniProt Q9EP73 19-238, limits assumed, biotinylated); test: as above
T4 construct: ELISA and BLI used proteins from different sources; They are kept as one molecule because no limits are stated

[6] = target: T5, recombinant cynomolgus monkey PD-L1 soluble protein (cynomolgus monkey, UniProt G7PSE7 19-238, biotinylated); test: as above
T5 construct: ELISA and BLI used proteins from different suppliers; They are kept as one molecule because no limits are stated; also called cyno PD-L1; cynomolgus PD-L1

[7] = target: T6, recombinant human CD47 soluble protein (human, UniProt Q08722 19-139); test: BLI (OctetRED96), His-tag CD47 on HIS1K biosensors, bsAb in solution, 1:1 global fit, 30 C
T6 construct: ELISA and BLI used different preparations; They are kept as one molecule because no limits are stated; also called His-tag human CD47

[8] = target: T4, recombinant mouse PD-L1 soluble protein; test: statement in the xenograft example; assay not named
[9] = target: T7, recombinant cynomolgus monkey CD47 soluble protein (cynomolgus monkey, UniProt A0A2K5X523 19-139); test: BLI (OctetRED96); set-up for cynomolgus CD47 not described
T7 construct: also called cyno CD47; cynomolgus CD47

| Binder | IC50 [1] [nM] | binding result [2] | in vitro phagocytosis potency (ADCP of Nalm-6 cells), macrophage donor D#096 [3] | in vitro phagocytosis potency (ADCP of Nalm-6 cells), macrophage donor D#097 [3] | in vitro phagocytosis potency (ADCP of Nalm-6 cells), macrophage donor D#103 [3] | Kd [4] [nM] | Kd [5] [nM] | Kd [6] [nM] | Kd [7] [nM] | binding result [8] | Kd [9] [nM] |
| --- | --- | --- | --- | --- | --- | --- | --- | --- | --- | --- | --- |
| K33xS79 CD47xPD-L1 bispecific antibody (bispecific antibody, human IgG4 S228P, kappa, lambda, also called K33xS79 bsAb) heavy: not shown light 1: DIQMTQSPSSLSASVGDRVTITCRASQSISSYLNWYQQKPGKAPKLLIYAASSLQSGVPSRFSGSGSGTDFTLTISSLQPEDFATYYCQQFHKRSPQKFGQGTKVEIKRTVAAPSVFIFPPSDEQLKSGTASVVCLLNNFYPREAKVQWKVDNALQSGNSQESVTEQDSKDSTYSLSSTLTLSKADYEKHKVYACEVTHQGLSSPVTKSFNRGEC light 2: QSALTQPASVSGSPGQSITISCTGTSSDVFRPPLVSWYQQHPGKAPKLMIYFASLRPSGVSNRFSGSKSGNTASLTISGLQAEDEADYYCSSWDHTGDGHVFGGGTKLTVLGQPKAAPSVTLFPPSSEELQANKATLVCLISDFYPGAVTVAWKADSSPVKAGVETTTPSKQSNNKYAASSYLSLTPEQWKSHRSYSCQVTHEGSTVEKTVAPTECS | 0.00219 | no binding | 29.2 | 16 | 7.5 | 0.5 | 0.52 | 1.35 | 56 |  |  |
| K38xS28 CD47xPD-L1 bispecific antibody (bispecific antibody, human IgG4 S228P, kappa, lambda, also called K38xS28 bsAb) heavy: not shown light 1: DIQMTQSPSSLSASVGDRVTITCRASQVIANWLNWYQQKPGKAPKLLIYAGSHLQSGVPSRFSGSGSGTDFTLTISSLQPEDFATYYCQQMHPRAPKTFGQGTKVEIKRTVAAPSVFIFPPSDEQLKSGTASVVCLLNNFYPREAKVQWKVDNALQSGNSQESVTEQDSKDSTYSLSSTLTLSKADYEKHKVYACEVTHQGLSSPVTKSFNRGEC light 2: not shown |  | no binding |  |  |  |  |  |  |  | no binding |  |

More lines, in order of falling IC50 [1], values ahead:

| IC50 [1] [nM] | binding result [2] | in vitro phagocytosis potency (ADCP of Nalm-6 cells), macrophage donor D#096 [3] | in vitro phagocytosis potency (ADCP of Nalm-6 cells), macrophage donor D#097 [3] | in vitro phagocytosis potency (ADCP of Nalm-6 cells), macrophage donor D#103 [3] | Kd [4] [nM] | Kd [5] [nM] | Kd [6] [nM] | Kd [7] [nM] | binding result [8] | Kd [9] [nM] | Binder |
| --- | --- | --- | --- | --- | --- | --- | --- | --- | --- | --- | --- |
| 0.00351 | no binding | 99.2 | 94 | 23.5 |  |  |  | 99 | binds |  | K106xS79 CD47xPD-L1 bispecific antibody (bispecific antibody, human IgG4 S228P, kappa, lambda, also called K106xS79 bsAb) heavy: not shown light 1: not shown light 2: QSALTQPASVSGSPGQSITISCTGTSSDVFRPPLVSWYQQHPGKAPKLMIYFASLRPSGVSNRFSGSKSGNTASLTISGLQAEDEADYYCSSWDHTGDGHVFGGGTKLTVLGQPKAAPSVTLFPPSSEELQANKATLVCLISDFYPGAVTVAWKADSSPVKAGVETTTPSKQSNNKYAASSYLSLTPEQWKSHRSYSCQVTHEGSTVEKTVAPTECS |
| 0.00252 |  |  |  |  |  |  |  |  |  |  | S79 anti-PD-L1 mAb (antibody, human IgG4 S228P, lambda, V domains shown, Bivalent monospecific anti-PD-L1 antibody with the common heavy chain and the S79 lambda light chain; also called S79 mAb; S79_Sc3_1G7_VLCL2 aPDL1 IGLV2-23) VH: not shown VL: QSALTQPASVSGSPGQSITISCTGTSSDVFRPPLVSWYQQHPGKAPKLMIYFASLRPSGVSNRFSGSKSGNTASLTISGLQAEDEADYYCSSWDHTGDGHVFGGGTKLTVLG |
| 0.00083 | no binding | 5.6 | 5 | 3.2 |  |  |  | 13.6 | binds | 16 | K38xS79 CD47xPD-L1 bispecific antibody (bispecific antibody, human IgG4 S228P, kappa, lambda, also called K38xS79 bsAb; K38S79) heavy: not shown light 1: DIQMTQSPSSLSASVGDRVTITCRASQVIANWLNWYQQKPGKAPKLLIYAGSHLQSGVPSRFSGSGSGTDFTLTISSLQPEDFATYYCQQMHPRAPKTFGQGTKVEIKRTVAAPSVFIFPPSDEQLKSGTASVVCLLNNFYPREAKVQWKVDNALQSGNSQESVTEQDSKDSTYSLSSTLTLSKADYEKHKVYACEVTHQGLSSPVTKSFNRGEC light 2: QSALTQPASVSGSPGQSITISCTGTSSDVFRPPLVSWYQQHPGKAPKLMIYFASLRPSGVSNRFSGSKSGNTASLTISGLQAEDEADYYCSSWDHTGDGHVFGGGTKLTVLGQPKAAPSVTLFPPSSEELQANKATLVCLISDFYPGAVTVAWKADSSPVKAGVETTTPSKQSNNKYAASSYLSLTPEQWKSHRSYSCQVTHEGSTVEKTVAPTECS |
